Values joined by “and” are separate entries in the source; they are usually repeats but may differ in a detail not shown here. Equal entries are not always repeated.
Assays:
[1] = target: wild-type recombinant lipoprotein P4 (rLP4) of non-typable Haemophilus influenzae (non-typable Haemophilus influenzae) (UniProt P26093); test: ELISA on coated wild-type rLP4; preimmune serum pool
[2] = target: wild-type recombinant lipoprotein P4 (rLP4) of non-typable Haemophilus influenzae (non-typable Haemophilus influenzae) (UniProt P26093); test: ELISA on coated wild-type rLP4; week 0 serum

Substance: pre-immune mouse serum (antibody)
- ELISA titer [1]: 82 titer and 65 titer
- Anti-rP4 ELISA titer [2]: 53 titer and 62 titer
- ELISA titer [2]: 53 titer
